Columns and labels:
[1] = biological target: Gp7_(F40C)-LA 327-403 (bacteriophage φ29 | human) (UniProt P13848); assay: SEC-MALS; inline MALS (Dawn Heleos) on Superdex 200 Increase 10/300 GL at 20 °C; individual proteins and 1:1 mixtures; 150 mM NaCl with 10 mM Hepes pH 7.5 or 10 mM TEA pH 7.0
[2] = biological target: the molecule itself; assay: as above

Molecule | stoichiometry N [1] | stoichiometry N [2]
Gp7_(F40C)-LA 327-403 (from UniProt P13848 1-49; P02545 327-403) (domain or fragment) | 2 | 
LA 17-70-Eb1 (domain or fragment, UniProt P02545 17-70, looked up, human lamin A, residues 17-70: truncated head domain, coil1A and the first three residues of linker L1; also called N-terminal fragment; N-terminal construct; source: E. coli Rosetta 2 (DE3) pLysS, purified (Ni column, tag cleavage, second Ni column, SEC); not shown: His6, N-terminal, cleaved; SUMO, N-terminal, cleaved) SSTPLSPTRITRLQEKEDLQELNDRLAVYIDRVRSLETENAGLRLRITESEEVVDFYFGKLRNIELICQENEGENDPVLQRIVDILYATDE |  | 2
LA 22-70-Eb1 (domain or fragment, UniProt P02545 22-70, looked up, human lamin A, residues 22-70: truncated head domain, coil1A and the first three residues of linker L1; also called N-terminal fragment; N-terminal construct; source: E. coli Rosetta 2 (DE3) pLysS, purified (Ni column, tag cleavage, second Ni column, SEC); not shown: His6, N-terminal, cleaved; SUMO, N-terminal, cleaved) SPTRITRLQEKEDLQELNDRLAVYIDRVRSLETENAGLRLRITESEEVVDFYFGKLRNIELICQENEGENDPVLQRIVDILYATDE |  | 2
